The source of these data is patent US20230293704A1, “Compositions and Methods for Tendon Regeneration” (University of Rochester, priority 2022, published 2023).

Data set [1] in a line: Dynamic light scattering characterization of nanoparticle size. To be noted: nanoparticles, DLS. In kind it is physicochemical. An excerpt: (§1) Polymer-peptide conjugates were self-assembled into nanoparticles via solvent exchange from dimethylformamide (DMF) to water using a syringe pump. Dynamic light scattering (DLS) was used to characterize the size and zeta potential of TBP-NPs and SCP-NPs. An in vitro binding assay that involved exposure of TBP-NPs and SCP-NPs to TRAP in serial dilutions was used to determine the binding affinity of TBP-NPs and establish their efficacy for in vivo applications. Specifically, after exposure of TBP-NPs to TRAP and incubation for 2 hours, fluorescamine, a spiro compound that reacts with primary amines to form highly fluorescent compounds, was added to the reaction. The protein-dye complex was excited with UV LED (365 nm) and emitted at 470 nm on a Cytation 5 Imaging Multimode Reader. The binding affinity (Kd) and maximum binding (Bmax) were then calculated to determine the efficacy of the synthesized TBP-NPs (FIG. 1 C-D).

In data set [2] the target is T1, TRAP (Homo sapiens, UniProt P13686).
T1 sequence (P13686 22-325): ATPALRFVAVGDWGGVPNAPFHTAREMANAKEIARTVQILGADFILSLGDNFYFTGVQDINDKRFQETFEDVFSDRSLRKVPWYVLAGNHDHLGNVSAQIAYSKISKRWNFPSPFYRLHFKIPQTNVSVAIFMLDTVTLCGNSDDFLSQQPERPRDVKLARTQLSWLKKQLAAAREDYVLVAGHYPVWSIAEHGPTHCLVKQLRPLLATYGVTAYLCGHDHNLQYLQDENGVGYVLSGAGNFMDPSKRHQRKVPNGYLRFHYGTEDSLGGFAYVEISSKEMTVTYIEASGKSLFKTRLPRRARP
In words: In vitro binding assay of TBP-NPs and SCP-NPs to TRAP (fluorescamine readout). To be noted: NPs exposed to TRAP in serial dilutions, incubation 2 hours; read-out: Binding Affinity (Kd).
Text: as §1

A further data set relates to S100a4. Conditions: Sack et al. 2011; cited from earlier work.
Data set [3] concerns the target T1, TRAP. Conditions: known from the art; cited from earlier work.
Data set [4] concerns the target tartrate resistant acid phosphatase (TRAP). In words: in vitro binding assay, NPs exposed to TRAP in serial dilutions, 2 h incubation, fluorescamine fluorescence readout.

No end group written: not given here. *: point of attachment. PSMA‑b‑PS = poly(styrene-alt-maleic anhydride)-b-poly(styrene) polymer; Alloc = C=CCOC(=O)*

Regarding “CDI-TBP: TBP-NPs made by carbodiimide coupling of free (unprotected) TBP to PSMA-b-PS nanoparticles (TPLSYLKGLVTVG; not fully specified; also: ['coupled to PSMA-b-PS nanoparticles by carbodiimide amide bond'])”, in data set [1], the “Diameter (nm)” value was 66 ± 3 nm and the “Dispersity for Size” value was found to be 0.4 ± 0.1.

Turning to “CDI-TBP-Alloc: TBP-NPs made by carbodiimide coupling of Alloc-protected-lysine TBP to pre-formed PSMA-b-PS nanoparticles (TPLSYLK(Alloc)GLVTVG-OH; also: coupled to PSMA-b-PS nanoparticle by amide bond (carbodiimide), site not given here)”, in the data set with TRAP [2], the Kd turned out to be 468 µM. Also, in data set [1], the “Diameter (nm)” value was 33 ± 3 nm and the “Dispersity for Size” value turned out to be 0.2 ± 0.1.

With “ARO-TBP-Alloc: TBP-NPs from anhydride ring-opening conjugation of Alloc-protected-lysine TBP to PSMA-b-PS polymer, then self-assembly (TPLSYLKGLVTVG-OH; not fully specified (residue 7, N-terminus); printed as TPLSYLKAllocGLVTVG; also: ['conjugated to PSMA-b-PS polymer by anhydride ring-opening'])”, the Kd with TRAP [2] was 186 µM. For the same molecule, in data set [1], the “Diameter (nm)” value is listed as 32 ± 2 nm and the “Dispersity for Size” value is listed as 0.1 ± 0.1.

Take `O=C(Nc1ccc([N+](=O)[O-])cc1Cl)c1cc(Cl)ccc1O` [Niclosamide]: the “effect on S100a4 gene and protein expression” value with S100a4 is “inhibit the S100a4 gene and protein expression”.

For the molecule “TPLSYLKGLVTVG [TBP, TPLSYLKGLVTVG (SEQ ID NO: 1), peptide known to home to TRAP]”, the “affinity for TRAP” value at TRAP [3] is “sub-nanomolar affinity”.

B1: TRAP binding peptide nanoparticles (TBP-NPs) prepared by anhydride ring-opening conjugation of Alloc-protected TBP to PSMA-b-PS polymer (peptide)
peptide: {PSMA‑b‑PS}-TPLSYLKGLVTVG-OH
modifications: not fully specified (residue 7); printed as TPLSYLKAllocGLVTVG; also: Lys7 Alloc-protected during conjugation, removal not given here
In turn, B1 had a Kd in data set [4] of 186 µM.

B2: TBP-NPs prepared by carbodiimide tagging of pre-formed PSMA-b-PS nanoparticles with Alloc-protected-lysine TBP (peptide)
peptide: TPLSYLK(Alloc)GLVTVG
modifications: not fully specified; printed as TPLSYLKAllocGLVTVG; also: ['coupled to PSMA-b-PS nanoparticles by carbodiimide amide bond']
In data set [4], B2 yielded an equilibrium dissociation constant (Kd) of 468 µM.

A word on the Kd: it is the constant that tells how readily two partners part at equilibrium.
